Measurements reported in IntAct's records for PubMed 30354839.

B1: RNA-binding protein FUS (Homo sapiens), P35637 (parent)
chain: MASNDYTQQATQSYGAYPTQPGQGYSQQSSQPYGQQSYSGYSQSTDTSGYGQSSYSSYGQSQNTGYGTQSTPQGYGSTGGYGSSQSSQSSYGQQSSYPGYGQQPAPSSTSGSYGSSSQSSSYGQPQSGSYSQQPSYGGQQQSYGQQQSYNPPQGYGQQNQYNSSSGGGGGGGGGGNYGQDQSSMSSGGGSGGGYGNQDQSGGGGSGGYGQQDRGGRGRGGSGGGGGGGGGGYNRSSGGYEPRGRGGGRGGRGGMGGSDRGGFNKFGGPRDQGSRHDSEQDNSDNNTIFVQGLGENVTIESVADYFKQIGIIKTNKKTGQPMINLYTDRETGKLKGEATVSFDDPPSAKAAIDWFDGKEFSGNPIKVSFATRRADFNRGGGNGRGGRGRGGPMGRGGYGGGGSGGGGRGGFPSGGGGGGGQQRAGDWKCPNPTCENMNFSWRNECNQCKAPKPDGPGGGPGGSHMGGNYGDDRRGGRGGYDRGGYRGRGGDRGGFRGGRGGGDRGGFGPGKMDSRGEHRQDRRERPY
B2: RNA-binding protein Raly (Homo sapiens), Q9UKM9 (parent)
chain: MSLKLQASNVTNKNDPKSINSRVFIGNLNTALVKKSDVETIFSKYGRVAGCSVHKGYAFVQYSNERHARAAVLGENGRVLAGQTLDINMAGEPKPDRPKGLKRAASAIYSGYIFDYDYYRDDFYDRLFDYRGRLSPVPVPRAVPVKRPRVTVPLVRRVKTNVPVKLFARSTAVTTSSAKIKLKSSELQAIKTELTQIKSNIDALLSRLEQIAAEQKANPDGKKKGDGGGAGGGGGGGGSGGGGSGGGGGGGSSRPPAPQENTTSEAGLPQGEARTRDDGDEEGLLTHSEEELEHSQDTDADDGALQ

Columns and labels:
raly_mouse Raly, Q64012 = variants of: B1; conditions: with raly_mouse Raly
Sequence of raly_mouse Raly, Q64012 (Q64012 whole entry): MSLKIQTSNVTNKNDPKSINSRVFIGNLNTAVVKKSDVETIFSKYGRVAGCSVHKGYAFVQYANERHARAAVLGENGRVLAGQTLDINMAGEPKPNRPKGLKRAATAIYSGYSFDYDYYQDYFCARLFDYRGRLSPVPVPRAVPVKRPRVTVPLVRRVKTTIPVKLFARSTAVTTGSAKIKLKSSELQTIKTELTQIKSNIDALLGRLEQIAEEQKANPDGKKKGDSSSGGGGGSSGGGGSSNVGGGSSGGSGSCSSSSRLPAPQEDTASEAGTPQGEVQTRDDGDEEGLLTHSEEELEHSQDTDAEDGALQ

raly_human RALY, Q9UKM9 = variants of: B1; conditions: with raly_human RALY
fus_human FUS, P35637 = variants of: B2; conditions: with fus_human FUS

Variant | effect of a mutation on the interaction (raly_mouse Raly, Q64012) | effect of a mutation on the interaction (raly_human RALY, Q9UKM9) | effect of a mutation on the interaction (fus_human FUS, P35637)
MASNDYTQQATQSYGAYPTQPGQGYSQQSSQPYGQQSYSGYSQSTDTSGYGQSSYSSYGQSQNTGYGTQSTPQGYGSTGGYGSSQSSQSSYGQQSSYPGYGQQPAPSSTSGSYGSSSQSSSYGQPQSGSYSQQPSYGGQQQSYGQQQSYNPPQGYGQQNQYNSSSGGGGGGGGGGNYGQDQSSMSSGGGSGGGYGNQDQSGGGGSGGYGQQDRGGRGRGGSGGGGGGGGGGYNRSSGGYEPRGRGGGRGGRGGMGGSDRGGFNKFGGPRDQGSRHDSEQDNSDNNTIFVQGLGENVTIESVADYFKQIGIIKTNKKTGQPMINLYTDRETGKLKGEATVSFDDPPSAKAAIDWFDGKEFSGNPIKVSFATRRADFNRGGGNGRGGRGRGGPMGRGGYGGGGSGGGGRGGFPSGGGGGGGQQRAGDWKCPNPTCENMNFSWRNECNQCKAPKPDGPGGGPGGSHMGGNYGDDRRGGRGGYDRGGYRGRGGDRGGFRGGRGGGDRGGFGPGKMDSRGEHRQDCRERPY [R521C] | with no effect | with no effect | –
MASNDYTQQATQSYGAYPTQPGQGYSQQSSQPYGQQSYSGYSQSTDTSGYGQSSYSSYGQSQNTGYGTQSTPQGYGSTGGYGSSQSSQSSYGQQSSYPGYGQQPAPSSTSGSYGSSSQSSSYGQPQSGSYSQQPSYGGQQQSYGQQQSYNPPQGYGQQNQYNSSSGGGGGGGGGGNYGQDQSSMSSGGGSGGGYGNQDQSGGGGSGGYGQQDRGGRGRGGSGGGGGGGGGGYNRSSGGYEPRGRGGGRGGRGGMGGSDRGGFNKFGGPRDQGSRHDSEQDNSDNNTIFVQGLGENVTIESVADYFKQIGIIKTNKKTGQPMINLYTDRETGKLKGEATVSFDDPPSAKAAIDWFDGKEFSGNPIKVSFATRRADFNRGGGNGRGGRGRGGPMGRGGYGGGGSGGGGRGGFPSGGGGGGGQQRAGDWKCPNPTCENMNFSWRNECNQCKAPKPDGPGGGPGGSHMGGNYGDDRRGGRGGYDRGGYRGRGGDRGGFRGGRGGGDRGGFGPGKMDSRGEHRQDHRERPY [R521H] | with no effect | with no effect | –
MASNDYTQQATQSYGAYPTQPGQGYSQQSSQPYGQQSYSGYSQSTDTSGYGQSSYSSYGQSQNTGYGTQSTPQGYGSTGGYGSSQSSQSSYGQQSSYPGYGQQPAPSSTSGSYGSSSQSSSYGQPQSGSYSQQPSYGGQQQSYGQQQSYNPPQGYGQQNQYNSSSGGGGGGGGGGNYGQDQSSMSSGGGSGGGYGNQDQSGGGGSGGYGQQDRGGRGRGGSGGGGGGGGGGYNRSSGGYEPRGRGGGRGGRGGMGGSDRGGFNKFGGPRDQGSRHDSEQDNSDNNTIFVQGLGENVTIESVADYFKQIGIIKTNKKTGQPMINLYTDRETGKLKGEATVSFDDPPSAKAAIDWFDGKEFSGNPIKVSFATRRADFNRGGGNGRGGRGRGGPMGRGGYGGGGSGGGGRGGFPSGGGGGGGQQRAGDWKCPNPTCENMNFSWRNECNQCKAPKPDGPGGGPGGSHMGGNYGDDRRGGRGGYDRGGYRGRGGDRGGFRGGRGGGDRGGFGPGKMDSRGEHRQDRRERLY [P525L] | with no effect | with no effect | –
P148A;R149A | – | – | with no effect
